Results as given in US20040203101A1 (Human Genome Sciences, published 2004).

Tests used:
human two-chain tPA [1] = target: T1, human two-chain tPA (human, UniProt P00750 36-310; P00750 311-562); experiment: comparison of rates of inhibition from Table I; reference BAIT with uPA
T1 construct: Two-chain (cleaved) form; also called tctPA

[2] = target: tissue-type plasminogen activator, tPA (Genentech) (human, UniProt P00750 36-562); experiment: cell-based or functional assay
bovine beta trypsin [3] = target: T2, bovine beta trypsin (bovine, UniProt P00760 24-246); experiment: cell-based or functional assay
T2 sequence (P00760 24-246 limits assumed): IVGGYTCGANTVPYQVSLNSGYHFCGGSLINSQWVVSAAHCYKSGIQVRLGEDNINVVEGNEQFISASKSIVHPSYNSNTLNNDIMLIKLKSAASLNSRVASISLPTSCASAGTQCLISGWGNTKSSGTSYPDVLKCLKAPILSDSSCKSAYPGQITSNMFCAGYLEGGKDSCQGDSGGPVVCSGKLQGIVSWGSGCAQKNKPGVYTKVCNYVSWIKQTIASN

[4] = target: urokinase-type plasminogen activator, uPA (Serono) (UniProt P00749 21-431, limits assumed); experiment: cell-based or functional assay
human two-chain tPA [5] = target: T1, human two-chain tPA; experiment: comparison of rates of inhibition; reference PN-1 with tPA
human single-chain tPA = target: T3, human single-chain tPA (human, UniProt P00750 36-562); experiment: kinetic constants for the interaction of BAIT with proteinases; method not described
T3 construct: also called sctPA
T3 sequence (P00750 36-562 limits assumed): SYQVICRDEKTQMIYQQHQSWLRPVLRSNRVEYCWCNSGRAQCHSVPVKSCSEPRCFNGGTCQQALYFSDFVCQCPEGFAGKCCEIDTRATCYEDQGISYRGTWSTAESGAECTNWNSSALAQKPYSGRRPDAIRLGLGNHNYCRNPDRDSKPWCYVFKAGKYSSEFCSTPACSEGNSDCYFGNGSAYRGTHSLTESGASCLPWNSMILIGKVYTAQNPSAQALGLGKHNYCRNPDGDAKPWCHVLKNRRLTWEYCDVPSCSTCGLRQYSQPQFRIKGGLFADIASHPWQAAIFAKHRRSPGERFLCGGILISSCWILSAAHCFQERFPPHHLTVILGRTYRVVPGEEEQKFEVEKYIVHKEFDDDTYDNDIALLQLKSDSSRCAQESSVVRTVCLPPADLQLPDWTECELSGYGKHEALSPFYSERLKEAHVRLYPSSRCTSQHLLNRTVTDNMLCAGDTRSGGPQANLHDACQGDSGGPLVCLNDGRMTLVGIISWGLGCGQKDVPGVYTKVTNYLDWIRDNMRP

[6] = target: human low molecular weight uPA (human, UniProt P00749 156-431); experiment: as above
plasmin = plasmin (Homo sapiens (Human), UniProt P00747 97-580; P00747 581-810, Two chains joined by disulfide bonds after cleavage of plasminogen at Arg580-Val581 (precursor count).); experiment: as above
Sequence of plasmin (P00747 97-580 limits assumed, form in doubt, chain 1 of 2): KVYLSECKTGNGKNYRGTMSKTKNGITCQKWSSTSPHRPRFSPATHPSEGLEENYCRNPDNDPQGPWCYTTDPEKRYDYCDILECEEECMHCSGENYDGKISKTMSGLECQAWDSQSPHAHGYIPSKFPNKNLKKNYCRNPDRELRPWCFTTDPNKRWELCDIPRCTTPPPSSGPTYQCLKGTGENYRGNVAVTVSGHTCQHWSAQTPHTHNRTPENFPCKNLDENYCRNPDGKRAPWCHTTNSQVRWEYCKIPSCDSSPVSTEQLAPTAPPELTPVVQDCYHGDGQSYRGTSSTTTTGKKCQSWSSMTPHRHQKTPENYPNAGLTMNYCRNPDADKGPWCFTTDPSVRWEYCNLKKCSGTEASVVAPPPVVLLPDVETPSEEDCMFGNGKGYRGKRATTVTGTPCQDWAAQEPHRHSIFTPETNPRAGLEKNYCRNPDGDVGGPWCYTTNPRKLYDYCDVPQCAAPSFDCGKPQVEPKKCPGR
Sequence of plasmin (P00747 581-810 limits assumed, form in doubt, chain 2 of 2): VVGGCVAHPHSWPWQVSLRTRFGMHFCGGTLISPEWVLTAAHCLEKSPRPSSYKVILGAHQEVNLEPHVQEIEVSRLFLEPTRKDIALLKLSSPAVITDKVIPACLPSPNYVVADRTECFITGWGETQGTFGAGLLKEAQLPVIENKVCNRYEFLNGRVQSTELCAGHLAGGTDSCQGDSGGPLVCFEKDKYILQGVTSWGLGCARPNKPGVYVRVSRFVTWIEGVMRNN

thrombin = thrombin (Homo sapiens (Human), UniProt P00734 328-363; P00734 364-622); experiment: as above
[7] = target: T4, human high molecular weight uPA (human, UniProt P00749 21-431); experiment: as above
T4 construct: also called uPA-H

bovine beta trypsin [8] = target: T2, bovine beta trypsin; experiment: as above
human two-chain tPA [9] = target: T1, human two-chain tPA; experiment: as above
human two-chain tPA [10] = target: T1, human two-chain tPA; experiment: comparison of rates of inhibition; reference PAI-1 with tPA

T1 sequence (P00750 36-310 limits assumed, chain 1 of 2): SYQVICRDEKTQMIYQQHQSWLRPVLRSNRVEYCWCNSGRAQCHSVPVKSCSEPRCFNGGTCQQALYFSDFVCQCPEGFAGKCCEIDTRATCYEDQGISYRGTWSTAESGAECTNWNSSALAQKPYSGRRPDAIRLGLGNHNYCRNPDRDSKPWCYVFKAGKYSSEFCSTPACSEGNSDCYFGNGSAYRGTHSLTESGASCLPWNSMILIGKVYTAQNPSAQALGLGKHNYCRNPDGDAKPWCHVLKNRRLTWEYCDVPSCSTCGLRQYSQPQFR
T1 sequence (P00750 311-562 limits assumed, chain 2 of 2): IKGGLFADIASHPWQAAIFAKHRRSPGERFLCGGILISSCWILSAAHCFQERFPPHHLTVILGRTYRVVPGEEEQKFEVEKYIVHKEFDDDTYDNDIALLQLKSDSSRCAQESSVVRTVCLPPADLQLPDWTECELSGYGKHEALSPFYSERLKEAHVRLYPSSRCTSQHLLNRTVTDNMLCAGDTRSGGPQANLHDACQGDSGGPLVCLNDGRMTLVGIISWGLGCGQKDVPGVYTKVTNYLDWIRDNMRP
Sequence of tissue-type plasminogen activator, tPA (Genentech) (P00750 36-562 limits assumed): as the sequence (P00750 36-562 limits assumed) above

B1: human BAIT (Brain-Associated Inhibitor of Tissue-Type Plasminogen Activator), mature protein expressed in baculovirus/Sf9 cells and purified (other)
chain: ATFPEEAIADLSVNMYNRLRATGEDENILFSPLSIALAMGMMELGAQGSTQKEIRHSMGYDSLKNGEEFSFLKEFSNMVTAKESQYVMKIANSLFVQNGFHVNEEFLQMMKKYFNAAVNHVDFSQNVAVANYINKWVENNTNNLVKDLVSPRDFDAATYLALINAVYFKGNWKSQFRPENTRTFSFTKDDESEVQIPMMYQQGEFYYGEFSDGSNEAGGIYQVLEIPYEGDEISMMLVLSRQEVPLATLEPLVKAQLVEEWANSVKKQKVEVYLPRFTVEQEIDLKDVLKALGITEIFIKDANLTGLSDNKEIFLSKAIHKSFLEVNEEGSEAAAVSGMIAISRMAVLYPQVIVDHPFFFLIRNRRTGTILFMGRVMHPETMNTSGHDFEEL
modifications: glycosylated (positions not stated)
notes: The preparation has mixed N-termini (also called BAIT protein); neural serpin
With B1 the “fold faster rate of inhibition of tPA than of uPA” value (human two-chain tPA [1]) was ~25 fold, the “half-maximal inhibitory concentration (IC50) of proteolytic activity, single step chromogenic assay” value (“half-maximal inhibitory concentration” for short) [2] was 200 nM and the “half-maximal inhibitory concentration” value (bovine beta trypsin [3]) was 700 nM. The “half-maximal inhibitory concentration” value [4] was 1000 nM, the “fold faster reaction with tPA than PN-1” value (human two-chain tPA [5]) was ~20 fold and the “K” value (human single-chain tPA) was 2.1 µM. The “k” value (human single-chain tPA) was 0.17 s⁻¹, the “ki” value (human single-chain tPA) was 80000 M⁻¹ s⁻¹ and the “K” value [6] was 1.4 µM. For the same binder, the “k” value [6] was 0.013 s⁻¹, the “ki” value [6] was 9200 M⁻¹ s⁻¹ and the “K” value (plasmin) was 0.15 µM. For the same binder, the “k” value (plasmin) was 5.2e-05 s⁻¹, the “ki” value (plasmin) was 360 M⁻¹ s⁻¹ and the “K” value (thrombin) was 0.64 µM. The “k” value (thrombin) was 0.000131 s⁻¹, the “ki” value (thrombin) was 210 M⁻¹ s⁻¹ and the “K” value [7] was 0.2 µM. For the same binder, the “k” value [7] was 0.005 s⁻¹, the “ki” value [7] was 25000 M⁻¹ s⁻¹ and the “K” value (bovine beta trypsin [8]) was 0.16 µM. For the same binder, the “k” value (bovine beta trypsin [8]) was 0.0096 s⁻¹, the “ki” value (bovine beta trypsin [8]) was 59000 M⁻¹ s⁻¹ and the “K” value (human two-chain tPA [9]) was 0.12 µM. For the same binder, the “k” value (human two-chain tPA [9]) was 0.078 s⁻¹, the “ki” value (human two-chain tPA [9]) was 620000 M⁻¹ s⁻¹ and the “fold slower reaction with tPA than PAI-1” value (human two-chain tPA [10]) was ~30 fold.
